# Assay results: patent US20190241648A1 (STATEN BIOTECHNOLOGY B V, published 2019)
# Ends that are not written are not given here.
# T1: ApoC3 peptide … S49E (human, cyclic constrained)
# T1 peptide: ARGWVTDGFSELK
# T2: ApoC3 peptide … A39F (human, cyclic constrained)
# T2 peptide: FRGWVTDGFSSLK
# T3: ApoC3 peptide … G46M (human, not fully specified (bridges); also: cyclic constrained)
# T3 peptide: ARGWVTDMFSSLK
# T4: ApoC3 peptide … S48L (human, not fully specified (bridges); also: cyclic constrained)
# T4 peptide: ARGWVTDGFLSLK
# T5: ApoC3 peptide … R40M (human, not fully specified (bridges); also: cyclic constrained)
# T5 peptide: AMGWVTDGFSSLK
# T6: ApoC3 peptide … K51Y (human, not fully specified; cyclic constrained)
# T6 peptide: ARGWVTDGFSSLY
# T7: ApoC3 peptide … W42L (human, not fully specified (bridges); also: cyclic constrained)
# T7 peptide: ARGLVTDGFSSLK
# T8: ApoC3 peptide … K51Q (human, not fully specified; cyclic constrained)
# T8 peptide: ARGWVTDGFSSLQ
# T9: ApoC3 peptide … K51T (human, not fully specified; cyclic constrained)
# T9 peptide: ARGWVTDGFSSLT
# T10: ApoC3 peptide … R40F (human, not fully specified (bridges); also: cyclic constrained)
# T10 peptide: AFGWVTDGFSSLK
# T11: ApoC3 peptide … T44M (human, not fully specified (bridges); also: cyclic constrained)
# T11 peptide: ARGWVMDGFSSLK
# T12: ApoC3 peptide … G46T (human, thioether (positions not given here); also: cyclic constrained)
# T12 peptide: ARGWVTDTFSSLK
# T13: ApoC3 peptide … D45H (human, cyclic constrained)
# T13 peptide: ARGWVTHGFSSLK
# T14: ApoC3 peptide … A39I (human, cyclic constrained)
# T14 peptide: IRGWVTDGFSSLK
# T15: ApoC3 peptide … F47Y (human, also: cyclic constrained)
# T15 peptide: ARGWVTDGYSSLK
# T16: ApoC3 peptide … A39M (human, cyclic constrained)
# T16 peptide: MRGWVTDGFSSLK
# T17: ApoC3 peptide … F47T (human, also: cyclic constrained)
# T17 peptide: ARGWVTDGTSSLK
# T18: ApoC3 peptide … G41Y (human, also: cyclic constrained)
# T18 peptide: ARYWVTDGFSSLK
# T19: ApoC3 peptide … A39G (human, cyclic constrained)
# T19 peptide: GRGWVTDGFSSLK
# T20: ApoC3 peptide … L50M (human, not fully specified; cyclic constrained)
# T20 peptide: ARGWVTDGFSSMK
# T21: ApoC3 peptide … K51E (human, thioether (positions not given here); also: cyclic constrained)
# T21 peptide: ARGWVTDGFSSLE
# T22: ApoC3 peptide … T44S (human, not fully specified (bridges); also: cyclic constrained)
# T22 peptide: ARGWVSDGFSSLK
# T23: ApoC3 peptide … K51W (human, not fully specified; cyclic constrained)
# T23 peptide: ARGWVTDGFSSLW
# T24: ApoC3 peptide … L50V (human, not fully specified (bridges); also: cyclic constrained)
# T24 peptide: ARGWVTDGFSSVK
# T25: ApoC3 peptide … K51N (human, not fully specified; cyclic constrained)
# T25 peptide: ARGWVTDGFSSLN
# T26: ApoC3 peptide … F47S (human, also: cyclic constrained)
# T26 peptide: ARGWVTDGSSSLK
# T27: ApoC3 peptide … V43M (human, not fully specified; cyclic constrained)
# T27 peptide: ARGWMTDGFSSLK
# T28: ApoC3 peptide … F47Q (human, not fully specified (bridges); also: cyclic constrained)
# T28 peptide: ARGWVTDGQSSLK
# B1: anti-ApoC3 antibody 14C7 (antibody, V domains shown)
# VH: QVQVQESGPGLVKPSQTLSLTCTVSGGSITTNSYYWSWIRQPPGKGLEWMGAIDYSGDTYYSPSLKSRTSISRDTSKNQFTLQLTSVTPEDTAVYYCVSRIPTGEYWGQGTQVTVSS
# VL: QTVVTQEPSLSVSPGGTVTLTCGLNSGSVTSSNYPDWYQQTPGQAPRLLIYNTNSRHSGVPSRFSGSISGNKAALTITGAQPEDEADYYCALYMGSDSVVFGGGTHLTVL
# notes: it was detected with goat anti-human IgG (Fc); also called mAb 14C7; llama antibody 14C7
# Experiments:
# Test in all cases: peptide microarray
# ApoC3 peptide … S49E = molecular target: T1, ApoC3 peptide … S49E
# Summary of the method: (§1)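 Peptide microarrays of ApoC3-derived peptides incubated with antibody samples, then stained with goat anti-human IgG (Fc) DyLight680 (1:5000) and anti-HA DyLight800 (1:2000) control. Read-out by fluorescence scanning at intensities 7/7 (red/green); a secondary-only pre-stain checked background, HA frame peptides served as quality control.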
# ApoC3 peptide … A39F = molecular target: T2, ApoC3 peptide … A39F
# Summary of the method: as §1
# ApoC3 peptide … S48V = ApoC3 peptide … S48V (human, cyclic constrained)
# Summary of the method: as §1
# ApoC3 peptide … G46M = molecular target: T3, ApoC3 peptide … G46M
# Summary of the method: as §1
# ApoC3 peptide … S48L = molecular target: T4, ApoC3 peptide … S48L
# Summary of the method: as §1
# ApoC3 peptide … S48W = ApoC3 peptide … S48W (human, cyclic constrained)
# Summary of the method: as §1
# ApoC3 peptide … R40M = molecular target: T5, ApoC3 peptide … R40M
# Summary of the method: as §1
# ApoC3 peptide … K51Y = molecular target: T6, ApoC3 peptide … K51Y
# Summary of the method: as §1
# ApoC3 peptide … W42L = molecular target: T7, ApoC3 peptide … W42L
# Summary of the method: as §1
# ApoC3 peptide … K51Q = molecular target: T8, ApoC3 peptide … K51Q
# Summary of the method: as §1
# ApoC3 peptide … K51T = molecular target: T9, ApoC3 peptide … K51T
# Summary of the method: as §1
# ApoC3 peptide … R40F = molecular target: T10, ApoC3 peptide … R40F
# Summary of the method: as §1
# ApoC3 peptide … T44M = molecular target: T11, ApoC3 peptide … T44M
# Summary of the method: as §1
# ApoC3 peptide … G46T = molecular target: T12, ApoC3 peptide … G46T
# Summary of the method: as §1
# ApoC3 peptide … D45H = molecular target: T13, ApoC3 peptide … D45H
# Summary of the method: as §1
# ApoC3 peptide … S48K = ApoC3 peptide … S48K (human, cyclic constrained)
# Summary of the method: as §1
# ApoC3 peptide … A39I = molecular target: T14, ApoC3 peptide … A39I
# Summary of the method: as §1
# ApoC3 peptide … F47Y = molecular target: T15, ApoC3 peptide … F47Y
# Summary of the method: as §1
# ApoC3 peptide … A39M = molecular target: T16, ApoC3 peptide … A39M
# Summary of the method: as §1
# ApoC3 peptide … F47T = molecular target: T17, ApoC3 peptide … F47T
# Summary of the method: as §1
# ApoC3 peptide … G41Y = molecular target: T18, ApoC3 peptide … G41Y
# Summary of the method: as §1
# ApoC3 peptide … A39G = molecular target: T19, ApoC3 peptide … A39G
# Summary of the method: as §1
# ApoC3 peptide … L50M = molecular target: T20, ApoC3 peptide … L50M
# Summary of the method: as §1
# ApoC3 peptide … K51E = molecular target: T21, ApoC3 peptide … K51E
# Summary of the method: as §1
# ApoC3 peptide … T44S = molecular target: T22, ApoC3 peptide … T44S
# Summary of the method: as §1
# ApoC3 peptide … K51W = molecular target: T23, ApoC3 peptide … K51W
# Summary of the method: as §1
# ApoC3 peptide … L50V = molecular target: T24, ApoC3 peptide … L50V
# Summary of the method: as §1
# ApoC3 peptide … K51N = molecular target: T25, ApoC3 peptide … K51N
# Summary of the method: as §1
# ApoC3 peptide … F47S = molecular target: T26, ApoC3 peptide … F47S
# Summary of the method: as §1
# ApoC3 peptide … S48T = ApoC3 peptide … S48T (human, cyclic constrained)
# Summary of the method: as §1
# ApoC3 peptide … V43M = molecular target: T27, ApoC3 peptide … V43M
# Summary of the method: as §1
# ApoC3 peptide … F47Q = molecular target: T28, ApoC3 peptide … F47Q
# Summary of the method: as §1
binder,measurement,setting,value
B1,% of binding to wild-type peptide,ApoC3 peptide … S49E,0%
same,% of binding to wild-type peptide,ApoC3 peptide … A39F,78.2%
same,% of binding to wild-type peptide,ApoC3 peptide … S48V,45.3%
same,% of binding to wild-type peptide,ApoC3 peptide … G46M,0%
same,% of binding to wild-type peptide,ApoC3 peptide … S48L,19.6%
same,% of binding to wild-type peptide,ApoC3 peptide … S48W,3.49%
same,% of binding to wild-type peptide,ApoC3 peptide … R40M,69.6%
same,% of binding to wild-type peptide,ApoC3 peptide … K51Y,0%
same,% of binding to wild-type peptide,ApoC3 peptide … W42L,312%
same,% of binding to wild-type peptide,ApoC3 peptide … K51Q,5.47%
same,% of binding to wild-type peptide,ApoC3 peptide … K51T,17.5%
same,% of binding to wild-type peptide,ApoC3 peptide … R40F,70.8%
same,% of binding to wild-type peptide,ApoC3 peptide … T44M,0%
same,% of binding to wild-type peptide,ApoC3 peptide … G46T,0%
same,% of binding to wild-type peptide,ApoC3 peptide … D45H,1.81%
same,% of binding to wild-type peptide,ApoC3 peptide … S48K,90%
same,% of binding to wild-type peptide,ApoC3 peptide … A39I,52.3%
same,% of binding to wild-type peptide,ApoC3 peptide … F47Y,67.7%
same,% of binding to wild-type peptide,ApoC3 peptide … A39M,90.7%
same,% of binding to wild-type peptide,ApoC3 peptide … F47T,0%
same,% of binding to wild-type peptide,ApoC3 peptide … G41Y,6.27%
same,% of binding to wild-type peptide,ApoC3 peptide … A39G,93%
same,% of binding to wild-type peptide,ApoC3 peptide … L50M,0.65%
same,% of binding to wild-type peptide,ApoC3 peptide … K51E,4.71%
same,% of binding to wild-type peptide,ApoC3 peptide … T44S,1.12%
same,% of binding to wild-type peptide,ApoC3 peptide … K51W,0%
same,% of binding to wild-type peptide,ApoC3 peptide … L50V,0.74%
same,% of binding to wild-type peptide,ApoC3 peptide … K51N,2.6%
same,% of binding to wild-type peptide,ApoC3 peptide … F47S,0%
same,% of binding to wild-type peptide,ApoC3 peptide … S48T,88.3%
same,% of binding to wild-type peptide,ApoC3 peptide … V43M,20.9%
same,% of binding to wild-type peptide,ApoC3 peptide … F47Q,0%
